Measured values published in article PMC8315802 (2021).

Target: F-actin (skeletal muscle actin) (Oryctolagus cuniculus, UniProt P68135)
Assay: actin co-sedimentation

Kd: 1000 nM
B1: Rng2 (curly) 1-189 (protein)
chain: MDVNVGLSRLQSQAGAPVGTKGSNTRLAAKQRETLQAYDYLCRVDEAKKWIEECLGTDLGPTSTFEQSLRNGVVLALLVQKFQPDKLIKIFYSNELQFRHSDNINKFLDFIHGIGLPEIFHFELTDIYEGKNLPKVIYCIHALSYFLSMQDLAPPLIKSDENLSFTDEDVSIIVRRLRQSNVILPNFKA
